Laboratory results as given in patent US20110129478A1.

Experiments:
[1] = target: human CD179b protein on the cell membrane surface of human cancer cell lines (human) (UniProt P15814); assay: cell-based or functional assay
[2] = target: human CD179b protein on the cell membrane surface of human cancer cell lines (human) (UniProt P15814); assay: flow cytometry on human cancer cell lines expressing CD179b, against mouse IgG2a isotype control

Sequence of UniProt P15814 (P15814 38-213): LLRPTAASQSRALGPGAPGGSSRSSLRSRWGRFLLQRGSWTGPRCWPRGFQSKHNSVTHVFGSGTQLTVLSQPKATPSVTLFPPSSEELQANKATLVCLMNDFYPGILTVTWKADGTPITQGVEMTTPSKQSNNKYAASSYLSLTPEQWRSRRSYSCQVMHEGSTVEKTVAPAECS

ADCC activity (chromium 51 release), BDCM cells [1]: 32.3%
ADCC activity (chromium 51 release), Namalwa cells [1]: 32.6%
ADCC activity (chromium 51 release), RPMI1788 cells [1]: 28.3%
CDC activity (chromium 51 release), BDCM cells [1]: 21.2%
CDC activity (chromium 51 release), Namalwa cells [1]: 30.5%
CDC activity (chromium 51 release), RPMI1788 cells [1]: 30.5%
fluorescence intensity higher than that of the isotype control [2]: > 10%
Substance: mouse anti-human CD179b antibody (clone name: GA170; manufactured by Santa Cruz Biotechnology)
